B1: Speckle-type POZ protein (Homo sapiens), O43791 (parent)
chain: MSRVPSPPPPAEMSSGPVAESWCYTQIKVVKFSYMWTINNFSFCREEMGEVIKSSTFSSGANDKLKWCLRVNPKGLDEESKDYLSLYLLLVSCPKSEVRAKFKFSILNAKGEETKAMESQRAYRFVQGKDWGFKKFIRRDFLLDEANGLLPDDKLTLFCEVSVVQDSVNISGQNTMNMVKVPECRLADELGGLWENSRFTDCCLCVAGQEFQAHKAILAARSPVFSAMFEHEMEESKKNRVEINDVEPEVFKEMMCFIYTGKAPNLDKMADDLLAAADKYALERLKVMCEDALCSNLSVENAAEILILADLHSADQLKTQAVDFINYHASDVLETSGWKSMVVSHPHLVAEAYRSLASAQCPFLGPPRKRLKQS

Variants of: B1
Conditions: with mycn_human MYCN

Variant | effect of a mutation on the interaction
F133V | with no effect

Variants of: B1
Conditions: with ncoa3_human NCOA3, Q9Y6Q9

Variant | effect of a mutation on the interaction
F133V | with no effect

Variants of: B1
Conditions: with ikba_human NFKBIA

Variant | effect of a mutation on the interaction
F133V | with no effect

Variants of: B1
Conditions: with nox1_human NOX1, Q9Y5S8
Chain of nox1_human NOX1, Q9Y5S8 (Q9Y5S8 whole entry): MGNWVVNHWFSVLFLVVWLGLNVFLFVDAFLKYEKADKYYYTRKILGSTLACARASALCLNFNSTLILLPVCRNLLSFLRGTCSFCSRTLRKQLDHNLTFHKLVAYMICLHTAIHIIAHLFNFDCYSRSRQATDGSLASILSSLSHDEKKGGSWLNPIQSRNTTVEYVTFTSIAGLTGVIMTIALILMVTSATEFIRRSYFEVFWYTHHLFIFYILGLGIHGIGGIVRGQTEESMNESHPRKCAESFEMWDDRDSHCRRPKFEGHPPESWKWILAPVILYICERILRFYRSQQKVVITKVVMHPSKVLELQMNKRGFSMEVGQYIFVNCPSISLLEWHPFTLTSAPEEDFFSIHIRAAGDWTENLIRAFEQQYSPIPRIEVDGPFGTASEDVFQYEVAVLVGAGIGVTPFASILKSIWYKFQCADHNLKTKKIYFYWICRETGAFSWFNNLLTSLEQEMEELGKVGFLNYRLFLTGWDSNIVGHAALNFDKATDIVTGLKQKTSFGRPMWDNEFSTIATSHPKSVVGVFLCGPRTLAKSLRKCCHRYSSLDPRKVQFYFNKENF

Variant | effect of a mutation on the interaction
F133V | with no effect

Variants of: B1
Conditions: with npm_human NPM1, P06748

Variant | effect of a mutation on the interaction
F133V | with no effect

Variants of: B1
Conditions: with nsd3_human NSD3, Q9BZ95

Variant | effect of a mutation on the interaction
F133V | with no effect

Variants of: B1
Conditions: with ntrk2_human NTRK2, Q16620

Variant | effect of a mutation on the interaction
F133V | with no effect

Variants of: B1
Conditions: with ntrk3_human NTRK3, Q16288

Variant | effect of a mutation on the interaction
F133V | with no effect

Variants of: B1
Conditions: with pak3_human PAK3, O75914
Chain of pak3_human PAK3, O75914 (O75914 whole entry, looked up): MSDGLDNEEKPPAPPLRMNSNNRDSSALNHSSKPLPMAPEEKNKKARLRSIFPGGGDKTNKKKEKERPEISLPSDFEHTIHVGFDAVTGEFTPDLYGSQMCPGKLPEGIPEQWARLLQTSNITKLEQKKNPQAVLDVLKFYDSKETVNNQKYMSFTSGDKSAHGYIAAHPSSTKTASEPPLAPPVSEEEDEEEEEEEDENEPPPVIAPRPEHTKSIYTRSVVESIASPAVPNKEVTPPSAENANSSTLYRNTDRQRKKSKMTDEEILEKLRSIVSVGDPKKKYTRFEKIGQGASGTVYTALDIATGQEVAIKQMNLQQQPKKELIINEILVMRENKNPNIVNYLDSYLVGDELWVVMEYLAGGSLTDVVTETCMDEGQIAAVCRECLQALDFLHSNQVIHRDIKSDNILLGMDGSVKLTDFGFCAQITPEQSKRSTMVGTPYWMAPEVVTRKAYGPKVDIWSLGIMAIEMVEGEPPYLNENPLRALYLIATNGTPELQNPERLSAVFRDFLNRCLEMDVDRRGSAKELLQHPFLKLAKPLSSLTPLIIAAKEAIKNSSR

Variant | effect of a mutation on the interaction
F133V | with no effect

Variants of: B1
Conditions: with prkn_human PRKN

Variant | effect of a mutation on the interaction
F133V | with no effect

Variants of: B1
Conditions: with pb1_human PBRM1, Q86U86

Variant | effect of a mutation on the interaction
F133V | with no effect

Variants of: B1
Conditions: with pcbp1_human PCBP1, Q15365
Chain of pcbp1_human PCBP1, Q15365 (Q15365 whole entry): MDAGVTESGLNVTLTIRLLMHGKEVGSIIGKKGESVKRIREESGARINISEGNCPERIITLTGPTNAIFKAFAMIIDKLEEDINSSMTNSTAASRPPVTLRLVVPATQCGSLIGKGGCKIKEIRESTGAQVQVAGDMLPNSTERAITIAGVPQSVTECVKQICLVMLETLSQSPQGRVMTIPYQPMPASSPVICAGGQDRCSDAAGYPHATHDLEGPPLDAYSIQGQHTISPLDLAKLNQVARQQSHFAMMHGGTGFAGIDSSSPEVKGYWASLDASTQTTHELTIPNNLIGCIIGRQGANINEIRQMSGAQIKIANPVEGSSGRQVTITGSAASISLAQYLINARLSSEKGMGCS

Variant | effect of a mutation on the interaction
F133V | with no effect

Variants of: B1
Conditions: with pdcd1_human PDCD1, Q15116

Variant | effect of a mutation on the interaction
F133V | with no effect

Variants of: B1
Conditions: with pgfrb_human PDGFRB

Variant | effect of a mutation on the interaction
F133V | with no effect

Variants of: B1
Conditions: with pdk1_human PDK1, Q15118

Variant | effect of a mutation on the interaction
F133V | with no effect

Variants of: B1
Conditions: with pk3ca_human PIK3CA

Variant | effect of a mutation on the interaction
F133V | with no effect

Variants of: B1
Conditions: with pk3cb_human PIK3CB

Variant | effect of a mutation on the interaction
F133V | with no effect

Variants of: B1
Conditions: with pk3cg_human PIK3CG

Variant | effect of a mutation on the interaction
F133V | with no effect

Variants of: B1
Conditions: with p85b_human PIK3R2, O00459
Chain of p85b_human PIK3R2, O00459 (O00459 whole entry): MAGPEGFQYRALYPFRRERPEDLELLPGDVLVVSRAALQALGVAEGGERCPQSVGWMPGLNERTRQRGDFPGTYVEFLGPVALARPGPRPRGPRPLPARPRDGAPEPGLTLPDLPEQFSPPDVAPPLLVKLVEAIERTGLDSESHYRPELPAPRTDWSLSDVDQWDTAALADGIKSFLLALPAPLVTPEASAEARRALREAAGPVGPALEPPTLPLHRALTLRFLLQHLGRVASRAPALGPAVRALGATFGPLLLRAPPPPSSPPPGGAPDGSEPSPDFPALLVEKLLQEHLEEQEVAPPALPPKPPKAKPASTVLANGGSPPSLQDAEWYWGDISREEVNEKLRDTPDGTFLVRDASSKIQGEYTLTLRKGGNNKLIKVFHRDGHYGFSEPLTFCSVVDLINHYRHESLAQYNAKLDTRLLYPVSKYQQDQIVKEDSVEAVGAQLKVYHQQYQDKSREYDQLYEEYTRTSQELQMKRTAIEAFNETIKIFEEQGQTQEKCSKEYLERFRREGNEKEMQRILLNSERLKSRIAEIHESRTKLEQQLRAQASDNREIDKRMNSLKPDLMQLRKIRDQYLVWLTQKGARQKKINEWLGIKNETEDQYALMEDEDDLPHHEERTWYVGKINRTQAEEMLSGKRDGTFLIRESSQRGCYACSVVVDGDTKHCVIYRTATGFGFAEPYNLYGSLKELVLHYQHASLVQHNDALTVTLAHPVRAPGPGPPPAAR

Variant | effect of a mutation on the interaction
F133V | with no effect

Variants of: B1
Conditions: with dpod1_human POLD1, P28340

Variant | effect of a mutation on the interaction
F133V | with no effect

Variants of: B1
Conditions: with dpoe1_human POLE

Variant | effect of a mutation on the interaction
F133V | with no effect

Variants of: B1
Conditions: with ppard_human PPARD

Variant | effect of a mutation on the interaction
F133V | with no effect

Variants of: B1
Conditions: with prdm1_human PRDM1, O75626
Chain of prdm1_human PRDM1, O75626 (O75626 whole entry): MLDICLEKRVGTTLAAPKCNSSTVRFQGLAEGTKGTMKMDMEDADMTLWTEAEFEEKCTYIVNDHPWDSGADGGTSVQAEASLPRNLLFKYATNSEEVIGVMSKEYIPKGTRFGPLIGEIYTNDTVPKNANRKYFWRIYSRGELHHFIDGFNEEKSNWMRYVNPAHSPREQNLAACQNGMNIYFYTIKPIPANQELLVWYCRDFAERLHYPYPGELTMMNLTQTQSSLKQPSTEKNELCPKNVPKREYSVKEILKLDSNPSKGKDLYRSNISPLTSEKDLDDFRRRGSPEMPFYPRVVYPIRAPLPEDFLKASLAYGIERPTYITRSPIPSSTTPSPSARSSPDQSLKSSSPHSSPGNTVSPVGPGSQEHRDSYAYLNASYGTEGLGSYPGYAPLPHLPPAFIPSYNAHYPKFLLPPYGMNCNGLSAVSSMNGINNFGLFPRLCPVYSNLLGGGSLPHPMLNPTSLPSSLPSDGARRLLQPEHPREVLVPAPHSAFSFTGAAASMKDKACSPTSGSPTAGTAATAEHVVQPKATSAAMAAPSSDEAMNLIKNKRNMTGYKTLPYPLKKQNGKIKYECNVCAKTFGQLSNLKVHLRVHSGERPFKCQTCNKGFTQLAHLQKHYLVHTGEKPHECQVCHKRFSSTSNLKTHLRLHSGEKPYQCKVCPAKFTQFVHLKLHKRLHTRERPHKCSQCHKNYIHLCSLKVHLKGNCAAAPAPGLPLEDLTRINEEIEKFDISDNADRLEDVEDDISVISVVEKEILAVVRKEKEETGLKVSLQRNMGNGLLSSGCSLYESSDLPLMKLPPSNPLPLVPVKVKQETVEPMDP

Variant | effect of a mutation on the interaction
F133V | with no effect

Variants of: B1
Conditions: with prex2_human PREX2, Q70Z35
Chain of prex2_human PREX2, Q70Z35 (Q70Z35 whole entry): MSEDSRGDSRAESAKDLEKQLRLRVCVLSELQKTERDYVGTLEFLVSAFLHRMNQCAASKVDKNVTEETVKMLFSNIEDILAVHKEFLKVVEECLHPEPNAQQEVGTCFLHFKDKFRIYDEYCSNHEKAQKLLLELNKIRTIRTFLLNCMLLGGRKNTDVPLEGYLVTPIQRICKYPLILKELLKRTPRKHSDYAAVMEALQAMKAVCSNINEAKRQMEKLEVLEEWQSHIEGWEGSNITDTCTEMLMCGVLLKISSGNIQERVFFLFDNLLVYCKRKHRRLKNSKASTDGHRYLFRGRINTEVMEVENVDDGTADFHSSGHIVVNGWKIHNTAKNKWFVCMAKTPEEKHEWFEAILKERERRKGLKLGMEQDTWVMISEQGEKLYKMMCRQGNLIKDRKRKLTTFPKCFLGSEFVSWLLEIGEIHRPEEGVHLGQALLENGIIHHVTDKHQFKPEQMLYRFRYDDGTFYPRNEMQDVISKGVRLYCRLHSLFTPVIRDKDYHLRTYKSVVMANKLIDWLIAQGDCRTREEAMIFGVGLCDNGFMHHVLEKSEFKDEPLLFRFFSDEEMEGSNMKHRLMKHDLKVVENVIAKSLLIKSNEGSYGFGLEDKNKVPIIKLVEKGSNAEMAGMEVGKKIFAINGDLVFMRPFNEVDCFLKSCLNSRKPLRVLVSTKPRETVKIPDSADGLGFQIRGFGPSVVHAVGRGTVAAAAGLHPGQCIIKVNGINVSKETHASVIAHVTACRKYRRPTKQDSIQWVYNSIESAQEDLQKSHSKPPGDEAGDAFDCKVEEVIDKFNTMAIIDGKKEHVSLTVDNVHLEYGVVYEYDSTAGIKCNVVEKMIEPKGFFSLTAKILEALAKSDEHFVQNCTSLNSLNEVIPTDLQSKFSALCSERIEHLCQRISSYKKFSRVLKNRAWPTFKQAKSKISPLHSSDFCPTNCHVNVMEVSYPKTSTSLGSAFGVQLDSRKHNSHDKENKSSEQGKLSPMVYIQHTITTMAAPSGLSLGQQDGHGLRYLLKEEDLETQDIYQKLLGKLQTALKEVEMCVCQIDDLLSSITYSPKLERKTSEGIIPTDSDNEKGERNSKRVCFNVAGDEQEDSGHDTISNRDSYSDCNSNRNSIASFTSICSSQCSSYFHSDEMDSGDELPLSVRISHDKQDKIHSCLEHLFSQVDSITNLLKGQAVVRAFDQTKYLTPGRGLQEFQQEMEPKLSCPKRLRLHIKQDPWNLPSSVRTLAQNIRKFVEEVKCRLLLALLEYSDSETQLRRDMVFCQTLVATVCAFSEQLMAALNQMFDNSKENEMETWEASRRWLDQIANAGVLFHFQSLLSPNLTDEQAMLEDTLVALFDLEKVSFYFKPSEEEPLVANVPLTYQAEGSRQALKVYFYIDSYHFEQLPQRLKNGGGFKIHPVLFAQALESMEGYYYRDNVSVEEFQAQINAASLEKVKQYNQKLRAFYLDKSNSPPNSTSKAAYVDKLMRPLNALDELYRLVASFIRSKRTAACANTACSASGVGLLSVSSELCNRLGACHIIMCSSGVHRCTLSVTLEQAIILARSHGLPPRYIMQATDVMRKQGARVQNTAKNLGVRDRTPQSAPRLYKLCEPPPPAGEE

Variant | effect of a mutation on the interaction
F133V | with no effect

Variants of: B1
Conditions: with aapk2_human PRKAA2, P54646

Variant | effect of a mutation on the interaction
F133V | with no effect

Variants of: B1
Conditions: with prss8_human PRSS8, Q16651
Chain of prss8_human PRSS8, Q16651 (Q16651 whole entry, looked up): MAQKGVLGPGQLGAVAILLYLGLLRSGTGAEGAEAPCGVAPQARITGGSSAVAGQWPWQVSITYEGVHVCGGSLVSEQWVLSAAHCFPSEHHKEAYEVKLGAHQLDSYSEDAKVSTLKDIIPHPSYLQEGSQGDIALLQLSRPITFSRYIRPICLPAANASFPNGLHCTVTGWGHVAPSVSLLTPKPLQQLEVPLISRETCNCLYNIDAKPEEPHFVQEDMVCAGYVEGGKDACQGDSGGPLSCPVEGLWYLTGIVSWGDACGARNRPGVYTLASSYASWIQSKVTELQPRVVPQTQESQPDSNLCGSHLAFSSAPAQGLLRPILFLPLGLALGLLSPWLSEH

Variant | effect of a mutation on the interaction
F133V | with no effect

Variants of: B1
Conditions: with ptk6_human PTK6, Q13882

Variant | effect of a mutation on the interaction
F133V | with no effect

Variants of: B1
Conditions: with tf65_human RELA

Variant | effect of a mutation on the interaction
F133V | with no effect

Variants of: B1
Conditions: with rictr_human RICTOR

Variant | effect of a mutation on the interaction
F133V | with no effect

Variants of: B1
Conditions: with rnf43_human RNF43, Q68DV7

Variant | effect of a mutation on the interaction
F133V | with no effect

Variants of: B1
Conditions: with ros1_human ROS1, P08922

Variant | effect of a mutation on the interaction
F133V | with no effect

Variants of: B1
Conditions: with rl11_human RPL11, P62913

Variant | effect of a mutation on the interaction
F133V | with no effect

Variants of: B1
Conditions: with rl5_human RPL5, P46777

Variant | effect of a mutation on the interaction
F133V | with no effect

Variants of: B1
Conditions: with rs15_human RPS15, P62841

Variant | effect of a mutation on the interaction
F133V | with no effect

Variants of: B1
Conditions: with rxra_human RXRA

Variant | effect of a mutation on the interaction
F133V | with no effect

Variants of: B1
Conditions: with sdha_human SDHA

Variant | effect of a mutation on the interaction
F133V | with no effect

Variants of: B1
Conditions: with setbp_human SETBP1, Q9Y6X0

Variant | effect of a mutation on the interaction
F133V | with no effect
